Measured values as given in patent US20250090676A1 (SUTRO BIOPHARMA, published 2025).
Residue numbers refer to the chain shown, from its start.

B1: SRP1848-F10 (antibody, V domains shown)
VH: EVQLVESGGGLVQPGGSLRLSCAASGFNISNNSIHWVRQAPGKGLEWVGSIFPNDGYTDYADSVKGRFTISADTSKNTAYLQMNSLRAEDTAVYYCARGSWFWRSGYGYYLDYWGQGTLVTVSS
VL: not shown
notes: HC variant paired with trastuzumab LC, cell-free expressed, HIS- and FLAG-tagged; also called Antibody 45
B2: SRP1848-F11 (antibody, V domains shown)
VH: B1 VH with S33Y, S50G, F52T, N54I, Y57N, K76M, F102Y, S105A, T118A
VL: not shown
notes: HC variant paired with trastuzumab LC, cell-free expressed, HIS- and FLAG-tagged; also called Antibody 46
B3: SRP1848-G01 (antibody, V domains shown)
VH: B1 VH with N31R, N32H, S50W, F52A, Y57S, F102A, G108S, Y110F
VL: not shown
notes: HC variant paired with trastuzumab LC, cell-free expressed, HIS- and FLAG-tagged; also called Antibody 47
B4: SRP1848-G03 (antibody, V domains shown)
VH: EVQLVESGGGLVQPGGSLRLSCAASGFNISTYYIHWVRQAPGKGLEWVGGITPSDGFTDYADSVKGRSTISADTSKNTAYLQMNSLRAEDTAVYYCARGSWSWPSGHGYFLDYWGQGTLVTVSS
VL: not shown
notes: HC variant paired with trastuzumab LC, cell-free expressed, HIS- and FLAG-tagged; also called Antibody 48
B5: SRP1848-H01 (antibody, V domains shown)
VH: EVQLVESGGGLVQPGGSLRLSCAASGFNIRTQSIHWVRQAPGKGLEWIGDIFPIDGITDYADSVKGRFTISADTSKNTAYLQMNSLRAEDTAVYYCARGSWSWPSGMDYYLDYWGQGTLVTVSS
VL: not shown
notes: HC variant paired with trastuzumab LC, cell-free expressed, HIS- and FLAG-tagged; also called Antibody 55
B6: SRP1848-A02 (antibody, V domains shown)
VH: EVQLVESGGGLVQPGGSLRLSCAASGFNISGFRIHWVRQAPGKGLEWVAGIYPESGATYYADSVKGRFTISADTSKNTAYLQMNSLRAEDTAVYYCARHLYVWDWVLDHVLDYWGQGTLVTVSS
VL: not shown
notes: HC variant paired with trastuzumab LC, cell-free expressed, HIS- and FLAG-tagged; also called Antibody 2
B7: SRP1848-D03 (antibody, V domains shown)
VH: B5 VH with L11V, T31Y, Q32F, I48V, I54N, I57S, D90E, S100H, M107Y, D108W
VL: not shown
notes: HC variant paired with trastuzumab LC, cell-free expressed, HIS- and FLAG-tagged; also called Antibody 25
B8: SRP1848-G04 (antibody, V domains shown)
VH: EVQLVESGGGLVQPGGSLRLSCAASGFNIHSTDIHWVRQAPGKGLEWVAYITPAGGATFYADSVKGRFTISADTSKNTAYLQMNSLRAEDTAVYYCARYPYWFAGYMDYWGQGTLVTVSS
VL: not shown
notes: HC variant paired with trastuzumab LC, cell-free expressed, HIS- and FLAG-tagged; also called Antibody 49
B9: SRP1848-G06 (antibody, V domains shown)
VH: B8 VH with H30R, F59Y, S63N, Y99Q
VL: not shown
notes: HC variant paired with trastuzumab LC, cell-free expressed, HIS- and FLAG-tagged; also called Antibody 50
B10: SRP1848-G07 (antibody, V domains shown)
VH: B8 VH with F59W, Y101F
VL: not shown
notes: HC variant paired with trastuzumab LC, cell-free expressed, HIS- and FLAG-tagged; also called Antibody 51
B11: SRP1848-G09 (antibody, V domains shown)
VH: B8 VH with H30R, S31G, Y99H, P100E, A104S
VL: not shown
notes: HC variant paired with trastuzumab LC, cell-free expressed, HIS- and FLAG-tagged; also called Antibody 52
B12: SRP1848-G10 (antibody, V domains shown)
VH: B8 VH with G16S, H30R, F59Y, M107I
VL: not shown
notes: HC variant paired with trastuzumab LC, cell-free expressed, HIS- and FLAG-tagged; also called Antibody 53
B13: SRP1848-G11 (antibody, V domains shown)
VH: B8 VH with H30S, F59W, A104S
VL: not shown
notes: HC variant paired with trastuzumab LC, cell-free expressed, HIS- and FLAG-tagged; also called Antibody 54
B14: SRP1848-E06 (antibody, V domains shown)
VH: EVQLVESGGGLVQPSGSLRLSCAASGFNINRYYIHWVRQAPGKGLEWVGGITPNDGYTDYADSVEGRFTTSADTSKNTAYLQMNSLRAEDTAVYYCARGTWSWPSGHSYYLDYWGQGTLVTVSS
VL: not shown
notes: HC variant paired with trastuzumab LC, cell-free expressed, HIS- and FLAG-tagged; also called Antibody 35
B15: SRP1848-E03 (antibody, V domains shown)
VH: B4 VH with V12A, S30G, T31N, S54R, S68F, M83V, S105A, G108S, F110Y
VL: not shown
notes: HC variant paired with trastuzumab LC, cell-free expressed, HIS- and FLAG-tagged; also called Antibody 33
B16: SRP2060-E10 (antibody, V domains shown)
VH: EVQLLESGGGLVQPGGSLRLSCAFSGFSLSTFGMGVGWVRQAPGKGLEWVSHIWWDDDKYYHPALKGRFTISKDNSKNTVYLQMNSLRAEDTAVYYCGRNHFPHYYGSSHWYFNVWGQGTTVTVSS
VL: EIVMTQSPATLSLSPGERATLSCKASQDINSYLSWYQQKPGQAPRLLIYRANRLVDGIPARFSGSGSGTDYTLTISSLEPEDFAVYYCLQYDEFPYTFGGGTKVEIK
notes: also called Antibody 56
B17: SRP2060-E05 (antibody, V domains shown)
VH: B16 VH with I71V
VL: B16 VL
notes: also called Antibody 57
B18: SRP2060-B01 (antibody, V domains shown)
VH: B16 VH with F24L, P43T, Y81H
VL: DIQMTQSPSTLSASVGDRVTITCKASQDINSYLSWYQQKPGKAPKLLIYRANRLVDGVPSRFSGSGSGTEFTLTISSLQPDDFATYYCLQYDEFPYTFGGGTKVEIK
notes: also called Antibody 58
B19: SRP2060-A06 (antibody, V domains shown)
VH: B16 VH with S51G, H62Y, N114D
VL: B18 VL
notes: also called Antibody 59

Legend:
[1] = target: T1, cynomolgus monkey folate receptor alpha (cynomolgus monkey, UniProt P15328 25-234 (human entry)); assay: FACS, CHO-cFOLR1 cells
T1 construct: Expressed on the surface of stably transfected CHO cells; also called cyno FolR1; CHO-cyno FolR1

[2] = target: T2, human folate receptor alpha (hFOLR1) (human, UniProt P15328 25-234); assay: FACS, CHO-hFOLR1 cells;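 further: flow cytometry of serially diluted antibodies binding CHO cells stably expressing the receptor, 60 min on ice, mixed with dye-tagged parental CHO as background control, one-site specific fit with Hill slope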
T2 construct: endogenous on FOLR1-positive KB and Igrov1 cells (cell killing); also called human FolR1; FolRα
Protocol: (§1) CHO cells were transfected to stably express human (CHO-hFOLR1), cynomolgus (CHO-cFOLR1), or mouse (CHO-mFOLR1) target molecule FOLR1 on the cell surface. Parental CHO cells were used as a negative control to determine background binding levels. Parental CHO and stably transfected CHO-hFOLR1, CHO-cFOLR1, and CHO-mFOLR1 cells were cultured in Ham's F-12: high glucose DMEM (50:50) (Corning, Cellgro-Mediatech) supplemented with 10% heat-inactivated fetal bovine serum (Corning, Cellgro-Mediatech), 1% Penicillin/Streptomycin (Corning, Cellgro-Mediatech) and 2 mmol/L-glutamax (Life Technology).
(§2) A mixture of fluoresecent-labeled parental CHO cells and unlabeled CHO-hFOLRlcells were prepared as follows. Parental CHO cells were washed twice in PBS and incubated in PBS containing with 1 nM CellTrace™ Oregon Green488® (Life Technologies) at 37° C. for 30 minutes. Labeled parental CHO cells were then washed 2× with Ham's F-12 media and 2× with FACS buffer (PBS with 1% bovine serum albumin). Unlabeled CHO-hFOLR1 cells were similarly washed and prepared. Labeled parental CHO and unlabeled CHO-hFOLR1 cells were combined at 1:1 ratio and seeded at 50 μL per well (200,000 cells per well) in 96 well polypropylene plates. Cells were mixed with 50 μL of test antibodies (i.e., anti-FOLR1 variants) serially diluted in FACS buffer and incubated on ice for 60 mins. […] Data were analyzed using FlowJo® software (FlowJo, LLC; Ashland, OR) to determine mean fluorescence intensities. Binding constants were calculated using the statistical software, GraphPad Prism (GraphPad Software; La Jolla, CA) using the nonlinear regression equation, one site-specific binding with Hill slope. Secondary antibody alone was used as a control, in addition to measuring non-specific antibody binding to CHO parental cells.

[3] = target: T3, murine folate receptor alpha (mouse, UniProt P35846 25-232); assay: FACS, CHO-mFOLR1 cells;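 further: flow cytometry binding of serially diluted test antibodies to transfected CHO cells on ice, mean fluorescence intensity, parental CHO cells give background, Kd from one-site specific binding fit with Hill slope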
T3 construct: Expressed on the surface of stably transfected CHO cells; also called mouse FolR1; CHO-mouse FolR1
Protocol: as §1, §2

[4] = target: T2, human folate receptor alpha (hFOLR1); assay: cell-based or functional assay
human FOLR1-HIS = target: T4, human FOLR1-HIS (human, UniProt P15328 25-233); assay: SPR (Biacore), antibody captured on anti-Fc, human FOLR1-HIS analyte, 25 C
T4 construct: Analyte of the Biacore assay; also called FolRα-ECD; extracellular domain of FOLR1; not shown: HIS tag
T4 sequence (P15328 25-233 limits assumed): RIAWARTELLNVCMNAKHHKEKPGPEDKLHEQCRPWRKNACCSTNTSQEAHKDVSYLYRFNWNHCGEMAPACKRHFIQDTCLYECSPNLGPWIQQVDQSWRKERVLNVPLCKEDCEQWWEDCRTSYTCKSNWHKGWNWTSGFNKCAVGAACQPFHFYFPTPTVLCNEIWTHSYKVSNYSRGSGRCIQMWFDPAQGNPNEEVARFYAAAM

T2 sequence (P15328 25-234 limits assumed): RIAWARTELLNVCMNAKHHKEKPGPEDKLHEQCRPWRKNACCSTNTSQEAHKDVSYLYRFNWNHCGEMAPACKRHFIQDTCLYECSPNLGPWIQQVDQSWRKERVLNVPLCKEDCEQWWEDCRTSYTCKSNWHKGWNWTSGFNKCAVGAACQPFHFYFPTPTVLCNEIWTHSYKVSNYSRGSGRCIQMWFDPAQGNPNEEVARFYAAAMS
T1 sequence (P15328 other isoform, or with tags, fused parts or gaps limits assumed): as the sequence (P15328 25-234 limits assumed) above, with I2T, W4R, R37K, Q117R, A146P, H171Y counted along it
T3 sequence (P35846 25-232 limits assumed): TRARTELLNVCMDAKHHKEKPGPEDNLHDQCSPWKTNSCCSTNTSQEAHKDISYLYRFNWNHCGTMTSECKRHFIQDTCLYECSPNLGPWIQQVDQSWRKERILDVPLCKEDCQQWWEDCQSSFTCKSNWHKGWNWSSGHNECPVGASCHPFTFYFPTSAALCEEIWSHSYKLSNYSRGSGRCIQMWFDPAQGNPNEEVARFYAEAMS

Binder	Bmax (MFI) [1]	Kd [1]	Bmax (MFI) [2]	Kd [2]	Bmax (MFI) [3]	Kd [3]	Igrov, 2° Antibody Cell Killing, Nb-SC239: EC50 [4]	Igrov, 2° Antibody Cell Killing, Nb-SC239: Span [4]	KB, 2° Antibody Cell Killing, Nb-239: EC50 [4]	KB, 2° Antibody Cell Killing, Nb-239: Span [4]	Kd (human FOLR1-HIS)	koff (human FOLR1-HIS)	kon (human FOLR1-HIS)
B1	20700 MFI	0.4 nM	25600 MFI	0.36 nM	1740 MFI	6.9 nM	0.009 nM	68%	0.038 nM	94%			
B2	21800 MFI	0.47 nM	26800 MFI	0.75 nM	1760 MFI	4.6 nM	0.017 nM	70%	0.054 nM	91%			
B3	20900 MFI	0.56 nM	27400 MFI	0.98 nM	1990 MFI	4.6 nM	0.022 nM	66%	0.07 nM	91%			
B4	19200 MFI	0.44 nM	26400 MFI	0.82 nM	2220 MFI	2.4 nM	0.021 nM	76%	0.064 nM	91%			
B5	17200 MFI	0.28 nM	27000 MFI	0.59 nM	3950 MFI	33.8 nM	0.016 nM	67%	0.049 nM	96%			
B6	18500 MFI	0.5 nM	24700 MFI	0.64 nM	18600 MFI	2.4 nM	0.039 nM	71%	0.028 nM	94%			
B7	14100 MFI	0.58 nM	26000 MFI	1.9 nM	3170 MFI	9.5 nM	0.038 nM	76%		98%			
B8	12500 MFI	0.25 nM	25200 MFI	0.76 nM	2000 MFI	2.5 nM	0.016 nM	75%	0.051 nM	92%			
B9	12800 MFI	0.31 nM	25800 MFI	0.63 nM	1860 MFI	11.1 nM	0.026 nM	81%	0.057 nM	96%			
B10	13700 MFI	0.35 nM	24900 MFI	0.78 nM	1980 MFI	2.9 nM	0.038 nM	78%	0.058 nM	94%			
B11	17700 MFI	0.35 nM	25100 MFI	0.59 nM	2180 MFI	6.4 nM	0.036 nM	83%	0.073 nM	97%			
B12	14200 MFI	0.24 nM	25300 MFI	0.49 nM	2890 MFI	4.3 nM	0.019 nM	79%	0.046 nM	97%			
B13	11800 MFI	0.26 nM	27200 MFI	0.68 nM	2740 MFI	7.6 nM	0.023 nM	84%	0.04 nM	97%			
B14	15800 MFI	0.26 nM	25600 MFI	0.48 nM	2350 MFI	1.2 nM	0.025 nM	74%		93%			
B15	17400 MFI	0.43 nM	26700 MFI	0.76 nM	5940 MFI	0.5 nM	0.027 nM	73%	0.057 nM	94%			
B16											2.06 nM	0.0012 s⁻¹	582000 M⁻¹ s⁻¹
B17											2.92 nM	0.00158 s⁻¹	541000 M⁻¹ s⁻¹
B18											2.62 nM	0.00147 s⁻¹	561000 M⁻¹ s⁻¹
B19											13.3 nM	0.00729 s⁻¹	547000 M⁻¹ s⁻¹
